Measurements from the supplement of paper PMC11136658.

System: peptide library, one residue held at a place counted from the Y acceptor
Test: relative phosphorylation of the sub-library (ratio to the mean residue at this position); higher = residue favoured
How it was run: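 Peptide library mixtures, biotinylated and centred on Tyr, each fixed one residue at one position from −5 to +5. Purified recombinant kinases were incubated with them for 90 min in 384-well plates alongside 50 μM ATP and γ-32P-ATP, and the captured, rinsed peptides on streptavidin membranes were measured by phosphorimaging and ImageQuant. Normalization divided each position's intensities by the sum of its 18 randomized residues (16 for the Ser/Thr-free library) and multiplied by that number, so that values give phosphorylation relative to the mean randomized residue.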

MERTK, construct: aa578-872, human, sequence (Q12866 578-872, looked up): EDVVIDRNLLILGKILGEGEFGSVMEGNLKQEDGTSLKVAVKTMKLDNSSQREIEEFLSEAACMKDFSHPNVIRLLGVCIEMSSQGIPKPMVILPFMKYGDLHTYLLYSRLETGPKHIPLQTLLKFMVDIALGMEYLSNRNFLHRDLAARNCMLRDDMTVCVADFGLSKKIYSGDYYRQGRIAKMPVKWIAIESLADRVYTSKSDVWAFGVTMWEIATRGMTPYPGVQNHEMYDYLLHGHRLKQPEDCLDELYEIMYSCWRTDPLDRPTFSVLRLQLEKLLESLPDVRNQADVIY
LTK, construct: aa450-end, human, sequence (P29376 450-864, looked up): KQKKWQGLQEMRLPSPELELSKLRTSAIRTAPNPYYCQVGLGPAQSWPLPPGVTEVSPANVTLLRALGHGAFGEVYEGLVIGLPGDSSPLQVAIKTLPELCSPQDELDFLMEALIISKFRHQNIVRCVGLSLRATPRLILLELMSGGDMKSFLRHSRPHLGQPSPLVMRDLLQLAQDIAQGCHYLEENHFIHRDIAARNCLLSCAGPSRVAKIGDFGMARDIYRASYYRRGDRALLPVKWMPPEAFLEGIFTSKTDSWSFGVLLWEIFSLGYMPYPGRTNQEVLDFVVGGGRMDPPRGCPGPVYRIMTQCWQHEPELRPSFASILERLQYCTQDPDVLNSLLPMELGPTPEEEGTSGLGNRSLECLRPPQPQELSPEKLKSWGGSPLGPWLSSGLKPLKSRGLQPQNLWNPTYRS
MATK, construct: Full length, human, sequence (P42679 whole entry, looked up): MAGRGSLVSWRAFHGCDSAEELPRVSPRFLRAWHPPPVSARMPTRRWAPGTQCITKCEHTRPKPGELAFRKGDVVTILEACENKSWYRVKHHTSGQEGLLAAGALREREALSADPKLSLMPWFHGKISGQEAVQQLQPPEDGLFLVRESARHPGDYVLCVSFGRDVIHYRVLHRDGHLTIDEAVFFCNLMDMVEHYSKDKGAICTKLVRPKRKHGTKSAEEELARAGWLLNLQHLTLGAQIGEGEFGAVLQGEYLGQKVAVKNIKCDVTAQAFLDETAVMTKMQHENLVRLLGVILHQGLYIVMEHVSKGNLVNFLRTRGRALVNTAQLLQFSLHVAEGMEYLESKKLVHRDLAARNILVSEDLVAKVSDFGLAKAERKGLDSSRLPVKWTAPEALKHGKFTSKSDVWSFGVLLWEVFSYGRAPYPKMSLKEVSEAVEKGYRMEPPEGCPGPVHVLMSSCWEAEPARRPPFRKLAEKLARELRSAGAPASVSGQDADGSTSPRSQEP

LTK, construct: aa450-end, human (from UniProt P29376)
relative phosphorylation
Conditions	at +1	at +2	at +3	at +4	at +5	at -1	at -2	at -3	at -4	at -5
A fixed	2.49	0.74	0.654	0.78	0.895	0.879	1.07	0.891	1.26	1.05
D fixed	0.526	0.697	0.327	0.862	0.716	1.28	0.86	1.09	0.982	1.02
E fixed	1.34	0.934	0.278	0.952	0.642	0.877	0.963	1.49	1.21	0.905
F fixed	0.908	1.31	2.08	1.11	1.37	0.992	0.711	1.03	1.05	1.01
G fixed	0.74	0.404	0.61	0.982	1.12	0.345	1.17	0.983	1.19	1.19
H fixed	0.848	0.806	0.808	1.11	0.914	1.12	1.08	0.947	0.883	0.961
I fixed	1.23	1.1	2.95	0.875	1	2.47	1.01	0.705	0.762	0.839
K fixed	0.402	0.708	0.361	1.1	0.949	0.377	1.09	1.09	1.05	1.23
L fixed	1.07	1.41	1.38	0.85	1.04	2.06	0.934	0.916	1.01	0.999
M fixed	1.82	1.19	1.82	1.07	0.968	0.982	0.882	0.886	0.878	0.844
N fixed	0.476	0.908	0.445	0.822	0.855	1.27	0.986	1.18	0.858	1.17
P fixed	0.18	0.683	0.671	1.02	1.65	0.835	1.04	0.968	1.2	1.14
Q fixed	1.21	0.834	0.468	1.18	0.763	0.576	1.07	0.923	1.1	0.987
R fixed	0.564	1.21	0.453	1.28	1.19	0.372	1.35	1.29	1.51	1.32
S fixed	1.02	0.654	0.547	0.916	0.916	0.477	1.07	1	0.679	0.831
T fixed	0.833	0.609	0.786	0.851	1.07	0.866	1.09	0.91	0.602	0.703
V fixed	1.27	1.1	2.09	0.854	0.806	1.68	0.894	0.757	0.735	0.815
W fixed	1.07	2.71	1.27	1.37	1.14	0.536	0.731	0.943	1.04	0.993
pThr fixed	0.903	0.538	0.284	0.676	0.557	0.691	0.702	0.79	0.885	0.891
pTyr fixed	1.46	2.37	0.533	1.29	0.546	4.33	1.16	1.12	1.11	1.06

MATK, construct: Full length, human (from UniProt P42679)
relative phosphorylation
Conditions	at +1	at +2	at +3	at +4	at +5	at -1	at -2	at -3	at -4	at -5
A fixed	1.54	0.899	0.728	0.85	0.892	0.545	0.986	0.875	1.17	0.971
D fixed	0.52	0.698	0.362	0.806	0.935	1.04	0.725	1.43	1.29	1.34
E fixed	1.01	0.877	0.364	1.15	1.09	2.07	1.36	2.47	1.78	1.26
F fixed	0.735	1.12	1.38	0.839	1.18	0.512	0.538	0.854	0.872	0.935
G fixed	0.643	0.46	0.667	0.962	0.845	0.407	1.23	0.95	1.39	1.18
H fixed	1.61	0.658	1.15	1.49	1	1.71	1.09	1.08	0.975	1.01
I fixed	0.964	0.972	1.95	0.803	0.862	2.32	0.822	0.599	0.724	0.922
K fixed	0.833	0.932	1.12	1.19	0.979	0.703	0.911	0.76	0.982	0.986
L fixed	0.776	1.24	1.51	0.876	0.881	0.905	0.737	0.683	0.756	0.763
M fixed	1.22	1.32	0.915	0.998	0.983	0.954	0.677	0.736	0.749	0.845
N fixed	0.804	1.3	0.491	1.14	1.09	0.988	1.03	1.23	0.879	1.1
P fixed	0.521	0.763	1.08	1.15	0.952	0.536	1.15	1.07	1.1	1.06
Q fixed	1.13	0.885	0.749	0.856	0.991	1.02	1	0.8	1.1	1.09
R fixed	1.04	1.42	1.19	1.4	1.24	0.706	1	0.967	1.04	1.09
S fixed	1.1	0.845	0.674	0.789	1.11	0.423	1.77	1.06	0.803	0.738
T fixed	0.927	0.839	0.842	0.772	1.01	0.818	1.41	0.868	0.713	0.923
V fixed	1.24	0.848	1.46	0.665	0.832	1.72	0.887	0.696	0.668	0.724
W fixed	1.38	1.93	1.37	1.27	1.14	0.627	0.671	0.869	1	1.06
pThr fixed	1.28	1.53	0.438	0.544	0.806	0.806	1.4	2.14	1.28	0.879
pTyr fixed	3.3	3.6	0.787	1.2	0.998	9.49	2.64	4.79	3	1.8

MERTK, construct: aa578-872, human (from UniProt Q12866)
relative phosphorylation
Conditions	at +1	at +2	at +3	at +4	at +5	at -1	at -2	at -3	at -4	at -5
A fixed	2.07	0.87	0.578	0.92	1.15	0.711	1.06	1.01	1.28	1.1
D fixed	0.89	0.601	0.483	0.962	0.839	0.591	0.967	1.27	1.12	0.979
E fixed	1.69	1.01	0.426	1.27	0.786	0.468	1.28	1.55	1.44	0.974
F fixed	1.01	1.64	1.93	1.14	0.565	1.75	0.655	0.836	0.595	1.03
G fixed	0.859	0.321	0.63	1.37	1.61	0.299	1.63	1.28	1.46	1.31
H fixed	0.791	0.687	0.848	1.12	1.01	1.4	0.989	0.875	0.891	0.994
I fixed	0.708	1.34	1.58	0.549	0.621	2.37	0.533	0.482	0.84	0.889
K fixed	0.25	0.594	0.254	0.822	0.996	0.436	0.948	0.746	0.911	1.05
L fixed	0.831	1.4	2.13	0.799	0.745	2.69	0.777	0.863	1.02	0.993
M fixed	1.4	1.2	1.64	1.09	0.917	1.14	0.68	0.967	0.968	1
N fixed	0.447	0.768	0.465	0.76	0.879	0.842	1.26	1.21	0.926	1.13
P fixed	0.172	0.684	1.17	1.2	2.65	0.481	1.18	1.32	1.25	1.24
Q fixed	1.04	0.695	0.72	0.962	0.81	0.63	1.19	0.953	1.16	1.09
R fixed	0.353	0.679	0.392	1.07	0.991	0.439	1.09	0.775	1.2	1.13
S fixed	1.33	0.725	0.562	0.926	1.08	0.517	1.34	1.16	0.807	0.783
T fixed	1.3	0.973	0.838	1	0.97	0.939	1.1	1.17	0.667	0.874
V fixed	1.53	1.33	1.55	0.904	0.756	1.38	0.842	0.803	0.866	0.862
W fixed	1.34	2.47	1.8	1.14	0.608	0.916	0.484	0.743	0.594	0.564
pThr fixed	1.89	1.18	0.3	0.633	0.568	0.718	0.915	1.1	0.901	0.902
pTyr fixed	1.96	2.62	0.613	0.678	0.61	2.26	1.19	1.46	1.13	0.957
